Tests used:
Format in all cases: biochemical
[1] = Mephenytoin 4'-hydroxylase assay, recombinant human CYP2C yeast microsomes (Table III)
Procedure: (§1) Purified or recombinant yeast microsomes (10-50 pmol) were preincubated with dilauroylphosphatidylcholine (15 μg per 50 pmol P450), P450 reductase (500 U per 50 mol P450), and human cytochrome b5 (2:1 molar ratio when added). The reconstituted mixture was preincubated for 5 min at 37° C., and then placed on ice. A final concentration of 0.4 mM radiolabelled S- or R-mephenytoin (20.7 mCi/mM and 20.9 mCi/mMol) was added to 50 mM HEPES buffer (pH 7.4) containing 0.1 mM EDTA and 1.5 mM MgCl2 for recombinant 2C proteins. The mixture was then incubated at 37° with shaking for 3 min, and the reaction started with the addition of 2mM NADPH and terminated after 30 min with an equal volume of methanol. […] Reaction volumes were generally 0.25 ml except when the volume of recombinant purified cytochrome or yeast microsomes was greater than 50 μl. In these cases, the volume was increased to 0.5 ml to limit the volume of glycerol from the purified preparation to <4% of the final volume.

[2] = Mephenytoin 4'-hydroxylase assay, purified recombinant P450 2C in reconstituted system (Table IV); conditions: for stereospecificity of 4'-hydroxylation of mephenytoin: purified, reconstituted system (Table IV)
Procedure: Recombinant yeast microsomes were prepared from a 10-12 l culture, and recombinant P450s were purified by aminooctylsepharose chromatography as described by Iwasaki et al., J. Biol. Chem. 226:3380-3382 (1991). The Emulgen was then removed from protein by adsorption of the protein to a 4 g hydroxylapatite column (Hypatite C, Clarkson Chemical Company, Williamsport, Pa.) equilibrated with 10 mM potassium phosphate buffer (pH 7.2), 20% glycerol, 0.1 mM EDTA, and 0.1 mM DTT and washing the column with the same buffer until the absorbance at 280 nm returned to zero. The P450 was then eluted with […], and dialyzed overnight against 100 mM potassium phosphate buffer (pH 7.4, 20% glycerol and 0.1 mM EDTA. Absolute and CO difference spectra of purified P450s were determined in the same buffer but containing 0.2% Emulgen and 0.5% cholate.
Mephenytoin 4'-hydroxylase activity was measured by a modification of the radiometric HPLC assay described by Shimada et al., J. Biol. Chem. 261:909-921 (1986), as described below. Purified or recombinant yeast microsomes (10-50 pmol) were preincubated with dilauroylphosphatidylcholine (15 μg per 50 pmol P450), P450 reductase (500 U per […] P450), and human cytochrome b5 (2:1 molar ratio when added). The reconstituted mixture was preincubated for 5 min at 37° C., and then placed on ice. A final concentration of 0.4 mM radiolabelled S- or R-mephenytoin (20.7 mCi/mM and 20.9 mCi/mMol) was added to 50 mM HEPES buffer (pH 7.4) containing 0.1 mM EDTA and 1.5 mM MgCl2 for recombinant 2C proteins. The mixture was then incubated at 37° with shaking for 3 min, and the reaction started with the addition of 2mM NADPH and terminated after 30 min with an equal volume of methanol. Cytochrome b5 was not included in all CYP2C18 reactions, since it had no effect or produced a slight inhibition on the activity of this CYP protein. Reaction volumes were generally 0.25 ml except when the volume of recombinant purified cytochrome or yeast microsomes was greater than 50 μl. In these cases, the volume was increased to 0.5 ml to limit the volume of glycerol from the purified preparation to <4% of the final volume.
At the end of the incubation period, the reactions were terminated with an equal volume of methanol. The incubation mixture was centrifuged at 10,000 g for 10 min and an aliquot assayed directly using HPLC without extraction. Samples with particularly low activity were concentrated by lyophilization and redissolved in a small volume of methanol:water (1:1) before assay. The HPLC system consisted of a reverse phase C18 (10 μm) Versapak, 300 mm×4.1 mm column (Altech Associates, Deerfield, Ill.) using an isocratic solvent consisting of methanol:water (45:55) with a flow rate was kept of 1 ml/min for 25 min. Detection of radioactive peaks was accomplished using an on-line Flow-One radiochemical detector (Radiomatic Instruments Co., Tampa, Fla. Detection of the unlabeled 4'-hydroxymephenytoin authentic standard was performed using an on-line multiwavelength UV detector at both 211 and 230 nm.
Recombinant P450s were purified from yeast microsomes and assays performe

[3] = Mephenytoin 4'-hydroxylase assay, recombinant human CYP2C yeast microsomes (Table III); conditions: recombinant yeast microsomes + P450 reductase, phospholipid, cytochrome b5 2:1; 0.4 mM substrate, HEPES pH 7.4, 37° C. 30 min; means ± SE
Procedure: as §1

[4] = Tolbutamide hydroxylase assay, recombinant human CYP2C yeast microsomes (Table V); conditions: 1 mg yeast microsomal protein + purified P450 reductase (1,000 units)
Procedure: Tolbutamide hydroxylase activity was measured according to Knodell et al., J. Pharmacol. Exper. […] Yeast microsomes (1 mg protein) were preincubated with 300 pmol hamster P450 reductase in 0.2 ml of the incubation buffer (below) for 3 min at 37° C. The reaction was then placed on ice and incubated in 0.2 ml of 50 mM HEPES buffer (pH 7.4) containing 1.5 mM MgCl2, 0.1 mM EDTA in a final volume of 1 ml and 1 mM sodium tolbutamide. The reaction was initiated with 0.5 mM NADPH. Human liver microsomes (0.22 mg protein) were incubated without reductase. Incubations with reconstituted recombinant P450s contained 50 pmol purified P450 enzyme, 150 pmol P450 reductase, and 15 μg dilauroylphosphatidyl-choline, and were performed in 100 mM potassium phosphate buffer (pH 7.4). Reactions were terminated after 60 min at 37° C. by the addition of 50 μl of 4N HCl, followed by extraction with 3 ml of water-saturated ethyl acetate. The ethyl acetate extracts were dried under nitrogen at 40° C., the residue resolubilized in 200 μl methanol, and 4-hydroxytolbutamide then assayed using HPLC by injecting 50 μl of the solubilized extract onto a μBONDAPAK C18 column (4.6×300 mm) using 0.05% phosphoric acid, pH 2.6: acetonitrile (6:4, v/v) as the mobile phase with a flow rate of 1 ml/min. The column eluate was monitored at 230 nm and rates of product formation were determined from standard curves prepared by adding varying amounts of 4-hydroxytolbutamide to incubations conducted without NADPH. […] Samples were analyzed in triplicate.

[5] = purified P450, reconstituted system

B1: 2C9: recombinant human cytochrome P450 2C9, allele not specified in the text (protein, UniProt P11712 1-490, looked up)
Cytochrome P450 2C9: MDSLVVLVLCLSCLLLLSLWRQSSGRGKLPPGPTPLPVIGNILQIGIKDISKSLTNLSKVYGPVFTLYFGLKPIVVLHGYEAVKEALIDLGEEFSGRGIFPLAERANRGFGIVFSNGKKWKEIRRFSLMTLRNFGMGKRSIEDRVQEEARCLVEELRKTKASPCDPTFILGCAPCNVICSIIFHKRFDYKDQQFLNLMEKLNENIKILSSPWIQICNNFSPIIDYFPGTHNKLLKNVAFMKSYILEKVKEHQESMDMNNPQDFIDCFLMKMEKEKHNQPSEFTIESLENTAVDLFGAGTETTSTTLRYALLLLLKHPEVTAKVQEEIERVIGRNRSPCMQDRSHMPYTDAVVHEVQRYIDLLPTSLPHAVTCDIKFRNYLIPKGTTILISLTSVLHDNKEFPNPEMFDPHHFLDEGGNFKKSKYFMPFSAGKRICVGEALAGMELFLFLTSILQNFNLKSLVDPKNLDTTPVVNGFASVPPFYQLCFIPV
- rate of 4'-hydroxylation of S-mephenytoin ([1]; recombinant yeast microsomes): 0.02 nmol/min/nmol
- turnover number higher than the activity of 2C9 purified from human liver ([2]; S-mephenytoin 4'-hydroxylation): ~ 100 times
- stereospecificity of 4'-hydroxylation of mephenytoin [2]: not stereospecific

B2: 2C9 Purified from Human Liver: cytochrome P450 2C9 purified from human liver microsomes (protein, UniProt P11712 1-490, looked up)
Cytochrome P450 2C9: B1 Cytochrome P450 2C9
- R/S Ratio [2, 5]: 1.6

B3: 2C8 Purified from Human Liver: cytochrome P450 2C8 purified from human liver microsomes (protein, UniProt P10632 1-490, looked up)
Cytochrome P450 2C8: MEPFVVLVLCLSFMLLFSLWRQSCRRRKLPPGPTPLPIIGNMLQIDVKDICKSFTNFSKVYGPVFTVYFGMNPIVVFHGYEAVKEALIDNGEEFSGRGNSPISQRITKGLGIISSNGKRWKEIRRFSLTTLRNFGMGKRSIEDRVQEEAHCLVEELRKTKASPCDPTFILGCAPCNVICSVVFQKRFDYKDQNFLTLMKRFNENFRILNSPWIQVCNNFPLLIDCFPGTHNKVLKNVALTRSYIREKVKEHQASLDVNNPRDFIDCFLIKMEQEKDNQKSEFNIENLVGTVADLFVAGTETTSTTLRYGLLLLLKHPEVTAKVQEEIDHVIGRHRSPCMQDRSHMPYTDAVVHEIQRYSDLVPTGVPHAVTTDTKFRNYLIPKGTTIMALLTSVLHDDKEFPNPNIFDPGHFLDKNGNFKKSDYFMPFSAGKRICAGEGLARMELFLFLTTILQNFNLKSVDDLKNLNTTAVTKGIVSLPPSYQICFIPV
- R/S Ratio [2, 5]: 1.6

B4: 2C18-Thr^385 (29c): recombinant human P450 2C18 allelic variant, clone 29c (Thr at 385), in yeast microsomes; residue 2 not stated in Table III (protein, UniProt P33260 26-490, looked up)
Cytochrome P450 2C18: RGRLPSGPTPLPIIGNILQLDVKDMSKSLTNFSKVYGPVFTVYFGLKPIVVLHGYEAVKEALIDHGEEFSGRGSFPVAEKVNKGLGILFSNGKRWKEIRRFCLMTLRNFGMGKRSIEDRVQEEARCLVEELRKTNASPCDPTFILGCAPCNVICSVIFHDRFDYKDQRFLNLMEKFNENLRILSSPWIQVCNNFPALIDYLPGSHNKIAENFAYIKSYVLERIKEHQESLDMNSARDFIDCFLIKMEQEKHNQQSEFTVESLIATVTDMFGAGTETTSTTLRYGLLLLLKYPEVTAKVQEEIECVVGRNRSPCMQDRSHMPYTDAVVHEIQRYIDLLPTNLPHAVTCDVKFKNYLIPKGTTIITSLTSVLHNDKEFPNPEMFDPGHFLDKSGNFKKSDYFMPFSAGKRMCMGEGLARMELFLFLTTILQNFNLKSQVDPKDIDITPIANAFGRVPPLYQLCFIPV
- Mephenytoin 4'-Hydroxylase Activity S ([1]; recombinant yeast microsomes + P450 reductase, phospholipid, cytochrome b5 2:1, 0.4 mM substrate, HEPES pH 7.4, 37° C. 30 min, means ± SE): 0.042 ± 0.004 nmol/min/nmol P450
- Mephenytoin 4'-Hydroxylase Activity S ([1]; recombinant yeast microsomes, no b5): 0.034 ± 0.008 nmol/min/nmol P450
- R/S Ratio ([1]; recombinant yeast microsomes, with cytochrome b5): 1.3
- Mephenytoin 4'-Hydroxylase Activity R [3]: 0.054 ± 0.003 nmol/min/nmol P450

B5: 2C18-Asp^2 Thr^385 (29c-1a): recombinant human P450 2C18, clone 29c with correct Asp^2, Thr^385 (protein, UniProt P33260 26-490, looked up)
Cytochrome P450 2C18: B4 Cytochrome P450 2C18
- R/S Ratio [2, 5]: 1.3
- Mephenytoin 4'-Hydroxylase Activity S ([2]; purified P450, reconstituted system, triplicate, means ± SE, blank not subtracted): 0.116 ± 0.010 nmol/min/nmol P450
- Mephenytoin 4'-Hydroxylase Activity R ([2]; triplicate, means ± SE, blank not subtracted): 0.147 ± 0.025 nmol/min/nmol P450
- Tolbutamide Hydroxylase Activity (nmol/min/nmol P450) ([4]; adjusted for P450 content): 0.19 ± 0.02 nmol/min/nmol P450
- Tolbutamide Hydroxylase Activity (nmol/min/mg protein) ([4]; means ±SE): 9.3 ± 0.7 nmol/min/mg protein

B6: 2C18: recombinant human cytochrome P450 2C18, variant not specified in the text (protein, UniProt P33260 26-490, looked up)
Cytochrome P450 2C18: B4 Cytochrome P450 2C18
- stereospecificity of 4'-hydroxylation of mephenytoin [2]: stereoselective for the R-enantiomer

— patent US5912120A, “Cloning, expression and diagnosis of human cytochrome P450 2C19: the principal determinant of s-mephenytoin metabolism” (The United States of America as represented by the …, priority 1994, dated 1999)
